In US20050282739A1:
Square brackets hold non-standard residues; d marks the D form. Ends that are not written are not given here. pGlu = O=C1CC[C@@H](C(=O)O)N1; Nle = CCCC[C@H](N)C(=O)O

Molecular target: bombesin receptor of rat brain membranes (rat)
Assay: 125I-Bombesin competition, rat brain membranes

Binder	% Inhibition
[dF]QWAVGHLLC-NH2 (bridge (positions not given here) via ReOCl3(PPh3)2; also: oxorhenium(V) N3S1 tetradentate complex at Cys 10) [metallopeptide 8-1]	39%
XQRLGNQWCVGHLX (Pyr 1; Nle 14; C-terminal amide; Re complexed at Cys 9) [metallopeptide 7-6]	91%
XQRLGNQWAVGHCX (Pyr 1; Nle 14; C-terminal amide; Re complexed at Cys 13) [metallopeptide 7-2]	66%
XQRCGNQWAVGHLX (Pyr 1; Nle 14; C-terminal amide; Re complexed at Cys 4) [metallopeptide 7-11]	95%
[pGlu]QRLGNQWAVCGHL[Nle]-NH2 (also: Re(V)=O N3S1 chelate at Cys11 (from ReOCl3(PPh3)2)) [metallopeptide 6-5]	67%
[dF]QWAVGHCLL-NH2 (bridge (positions not given here) via ReOCl3(PPh3)2; also: oxorhenium(V) N3S1 tetradentate complex at Cys 8) [metallopeptide 8-3]	49%
[dF]QWCVGHLL-NH2 (not fully specified (bridges); printed as D-Phe-Gln-Trp-Cys-Val-Gly-His-Leu-Leu-NH2; also: Re(V)=O complexed at Cys (N3S1 chelate)) [metallopeptide 9-6]	43%
Ac-AQCRLGNQWAVGHL[Nle]-NH2 (also: Re(V)=O N3S1 chelate at Cys3 (from ReOCl3(PPh3)2)) [metallopeptide 6-13]	99%
[pGlu]QRLGNQWAVGHCL[Nle]-NH2 (also: Re(V)=O N3S1 chelate at Cys13 (from ReOCl3(PPh3)2)) [metallopeptide 6-3]	71%
[dF]QWAVGHCL-NH2 (not fully specified (bridges); printed as D-Phe-Gln-Trp-Ala-Val-Gly-His-Cys-Leu-NH2; also: Re(V)=O chelate (N3S1) at Cys8) [metallopeptide 9-2]	35%
[dF]QWAVCHLL-NH2 (not fully specified (bridges); printed as D-Phe-Gln-Trp-Ala-Val-Cys-His-Leu-Leu-NH2; also: Re(V)=O complexed at Cys (N3S1 chelate)) [metallopeptide 9-4]	75%
[pGlu]QRLGCNQWAVGHL[Nle]-NH2 (also: oxorhenium(V) N3S1 chelate at Cys6) [metallopeptide 6-10]	93%
[pGlu]QRLGNQCWAVGHL[Nle]-NH2 (also: Re(V)=O N3S1 chelate at Cys8 (from ReOCl3(PPh3)2)) [metallopeptide 6-8]	75%
[dF]QWAVGHLC-NH2 (not fully specified (bridges); also: Re(V)=O chelate (N3S1) at Cys9) [metallopeptide 9-1]	86%
XQRLGNCWAVGHLX (Pyr 1; Nle 14; C-terminal amide; Re complexed at Cys 7) [metallopeptide 7-8]	84%
XQRLGNQWAVCHLX (Pyr 1; Nle 14; C-terminal amide; Re complexed at Cys 11) [metallopeptide 7-4]	81%
[pGlu]QRLGNQWCAVGHL[Nle]-NH2 (also: Re(V)=O N3S1 chelate at Cys9 (from ReOCl3(PPh3)2)) [metallopeptide 6-7]	62%
XQRLGNQWAVGCLX (Pyr 1; Nle 14; C-terminal amide; Re complexed at Cys 12) [metallopeptide 7-3]	82%
[dF]QWAVGHLL-NH2 (N-terminus assumed; SMILES CC(C)C[C@H](NC(=O)[C@H](CC(C)C)NC(=O)[C@H](Cc1c[nH]cn1)NC(=O)CNC(=O)[C@@H](NC(=O)[C@H](C)NC(=O)[C@H](Cc1c[nH]c2ccccc12)NC(=O)[C@H](CCC(N)=O)NC(=O)[C@H](N)Cc1ccccc1)C(C)C)C(N)=O) [bombesin analog parent polypeptide D-Phe-Gln-Trp-Ala-Val-Gly-His-Leu-Leu-NH2]	92%
XQRLGNQWACGHLX (Pyr 1; Nle 14; C-terminal amide; Re complexed at Cys 10) [metallopeptide 7-5]	61%
XQRLGNQWAVGHLC (Pyr 1; C-terminal amide; Re complexed at Cys 14) [metallopeptide 7-1]	73%
[pGlu]QRCLGNQWAVGHL[Nle]-NH2 (also: Re(V)=O N3S1 chelate at Cys4 (from ReOCl3(PPh3)2)) [metallopeptide 6-12]	97%
XQRLGNQWAVGHLCX (Pyr 1; Nle 15; C-terminal amide; Re complexed at Cys 14) [metallopeptide 6-2]	91%

The remaining lines, values ahead:

% Inhibition	Binder
93%	XQRLGCQWAVGHLX (Pyr 1; Nle 14; C-terminal amide; Re complexed at Cys 6) [metallopeptide 7-9]
59%	[dF]QWAVGCHLL-NH2 (bridge (positions not given here) via ReOCl3(PPh3)2; also: oxorhenium(V) N3S1 tetradentate complex at Cys 7) [metallopeptide 8-4]
-2%	XQRLGNQCAVGHLX (Pyr 1; Nle 14; C-terminal amide; Re complexed at Cys 8) [metallopeptide 7-7]
83%	[pGlu]QRLGNQWACVGHL[Nle]-NH2 (also: Re(V)=O N3S1 chelate at Cys10 (from ReOCl3(PPh3)2)) [metallopeptide 6-6]
62%	[dF]QCWAVGHLL-NH2 (not fully specified (bridges); printed as D-Phe-Gln-Cys-Trp-Ala-Val-Gly-His-Leu-Leu-NH2; also: Re(V)=O chelate (N3S1) at Cys3) [metallopeptide 8-8]
70%	[dF]QWAVCGHLL-NH2 (bridge (positions not given here) via ReOCl3(PPh3)2; also: oxorhenium(V) N3S1 tetradentate complex at Cys 6) [metallopeptide 8-5]
35%	[dF]QWACVGHLL-NH2 (not fully specified (bridges); printed as D-Phe-Gln-Trp-Ala-Cys-Val-Gly-His-Leu-Leu-NH2; also: oxorhenium(V) N3S1 tetradentate complex at Cys 5) [metallopeptide 8-6]
10%	[dF]QWAVC[dH]LL-NH2 (bridge (positions not given here) via ReOCl3(PPh3)2; also: oxorhenium(V) N3S1 tetradentate complex at Cys 6) [metallopeptide 10-1]
70%	[pGlu]QRLGNQWAVGCHL[Nle]-NH2 (also: Re(V)=O N3S1 chelate at Cys12 (from ReOCl3(PPh3)2)) [metallopeptide 6-4]
17%	[dF]QWACGHLL-NH2 (not fully specified (bridges); printed as D-Phe-Gln-Trp-Ala-Cys-Gly-His-Leu-Leu-NH2; also: Re(V)=O complexed at Cys (N3S1 chelate)) [metallopeptide 9-5]
91%	[pGlu]QRLGNCQWAVGHL[Nle]-NH2 (also: Re(V)=O N3S1 chelate at Cys7 (from ReOCl3(PPh3)2)) [metallopeptide 6-9]
106%	XQRLGNQWAVGHLM (not fully specified; pyroglutamic acid (Pyr) 1; C-terminal amide) [bombesin parent polypeptide Pyr-Gln-Arg-Leu-Gly-Asn-Gln-Trp-Ala-Val-Gly-His-Leu-Met-NH2]
75%	[dF]QWAVGHLCL-NH2 (bridge (positions not given here) via ReOCl3(PPh3)2; also: oxorhenium(V) N3S1 tetradentate complex at Cys 9) [metallopeptide 8-2]
70%	[dF]QWAVGCLL-NH2 (not fully specified (bridges); printed as D-Phe-Gln-Trp-Ala-Val-Gly-Cys-Leu-Leu-NH2; also: Re(V)=O chelate (N3S1) at Cys7) [metallopeptide 9-3]
19%	[dF]QCAVGHLL-NH2 (not fully specified (bridges); printed as D-Phe-Gln-Cys-Ala-Val-Gly-His-Leu-Leu-NH2; also: Re(V)=O complexed at Cys (N3S1 chelate)) [metallopeptide 9-7]
8%	[dF]QWCAVGHLL-NH2 (not fully specified (bridges); printed as D-Phe-Gln-Trp-Cys-Ala-Val-Gly-His-Leu-Leu-NH2; also: oxorhenium(V) N3S1 tetradentate complex at Cys 4) [metallopeptide 8-7]
96%	Ac-AQCLGNQWAVGHL[Nle]-NH2 (also: Re(V)=O N3S1 chelate at Cys3 (from ReOCl3(PPh3)2)) [metallopeptide 7-12]
82%	[pGlu]QRLGNQWAVGHL[Nle]C-NH2 (also: oxorhenium(V) N3S1 chelate at Cys15) [metallopeptide 6-1]
